The values that follow come from patent publication US20230346885A1 (published 2023).

Residue numbers refer to the chain shown, from its start.

What all share (test): binding, other
Assay [1] addresses T1, NR0B1 peptide on HLA (human).
T1 peptide: GLPGGRPVAL

For another assay, the target named is T2, PAEP peptide on HLA (human).
T2 peptide: AMATNNISL

Assay [2] concerns the target T3, NR0B1 peptide on HLA (human).
T3 peptide: GLLKTLRFV

Another assay addresses T4, NPSR1 peptide on HLA (human).
T4 peptide: VIIQNLPAL

B1: TCR of SEQ ID NOs 457 and 458 (TCR, V domains shown)
Valpha: KQEVTQIPAALSVPEGENLVLNCSFTDSAIYNLQWFRQDPGKGLTSLLLIQSSQREQTSGRLNASLDKSSGRSTLYIAASQPGDSATYLCAVSGYSTLTFGKGTMLLVSP
Vbeta: NAGVTQTPKFRVLKTGQSMTLLCAQDMNHEYMYWYRQDPGMGLRLIHYSVGEGTTAKGEVPDGYNVSRLKKQNFLLGLESAAPSQTSVYFCASTGGGPPLNTEAFFGQGTRLTVV
In the case of B1, the binding result in the assay with NR0B1 peptide on HLA [1] was “recognises”.

B2: TCR of SEQ ID NOs 459 and 460 (TCR, V domains shown)
Valpha: B1 Valpha with V92A
Vbeta: NAGVTQTPKFQVLKTGQSMTLQCAQDMNHEYMSWYRQDPGMGLRLIHYSVGAGITDQGEVPNGYNVSRSTTEDFPLRLLSAAPSQTSVYFCASRLGQFGQAFFGQGTRLTVV
As for B2, in the assay with NR0B1 peptide on HLA [1], the binding result is “recognises”.

B3: TCR of SEQ ID NOs 461 and 462 (TCR, V domains shown)
Valpha: KQEVTQIPAALSVPEGENLVLNCSFTDSAIYNLQWFRQDPGKGLTSLLLIQSSQREQTSGRLNASLDKSSGRSTLYIAASQPGDSATYLCAVSRSWGKFQFGAGTQVVVTP
Vbeta: NAGVTQTPKFQVLKTGQSMTLQCAQDMNHEYMSWYRQDPGMGLRLIHYSVGAGITDQGEVPNGYNVSRLNKREFSLRLESAAPSQTSVYFCASSLTGGAEYGYTFGSGTRLTVV
Turning to B3, in the assay with PAEP peptide on HLA, the binding result is listed as “recognises”.

B4: TCR of SEQ ID NOs 449 and 450 (TCR, V domains shown)
Valpha: KQEVTQIPAALSVPEGENLVLNCSFTDSAIYNLQWFRQDPGKGLTSLLLIQSSQREQTSGRLNASLDKSSGRSTLYIAASQPGDSATYLCAVRPGDSWGKLQFGAGTQVVVTP
Vbeta: NAGVTQTPKFQVLKTGQSMTLQCAQDMNHEYMSWYRQDPGMGLKLIYYSVGAGITDKGEVPNGYNVSRSTTEDFPLRLLSAAPSQTSVYFCASSSPVGTAFFGQGTRLTVV
Regarding B4, in the assay with NR0B1 peptide on HLA [2], the binding result is “recognises”.

B5: TCR of SEQ ID NOs 455 and 456 (TCR, V domains shown)
Valpha: B1 Valpha with S93R, S96Q, T97K, L98V, K102T, M105K, L107Q, S109I
Vbeta: B4 Vbeta with K44R, Y47H, K57Q, S93T, S95G, P96L, V97N, G98T, T99E
As to B5, in the assay with NR0B1 peptide on HLA [1], the binding result was “recognises”.

B6: TCR of SEQ ID NOs 447 and 448 (TCR, V domains shown)
Valpha: QKEVEQNSGPLSVPEGAIASLNCTYSDRGSQSFFWYRQYSGKSPELIMSIYSNGDKEDGRFTAQLNKASQYVSLLIRDSQPSDSATYLCAVSAAGNKLTFGGGTRVLVKP
Vbeta: NAGVTQTPKFRILKIGQSMTLQCTQDMNHNYMYWYRQDPGMGLKLIYYSAGAGITDKGEVPNGYNVSRSTTEDFPLRLELAAPSQTSVYFCASSYFGEQYFGPGTRLTVT
With B6, the binding result with NPSR1 peptide on HLA is given as “recognises”.

B7: TCR of SEQ ID NOs 451 and 452 (TCR, V domains shown)
Valpha: KQEVTQIPAALSVPEGENLVLNCSFTDSAIYNLQWFRQDPGKGLTSLLLIQSSQREQTSGRLNASLDKSSGRSTLYIAASQPGDSATYLCAVGTDSWGKFQFGAGTQVVVTP
Vbeta: NAGVTQTPKFQVLKTGQSMTLQCAQDMNHEYMSWYRQDPGMGLRLIHYSVGAGITDQGEVPNGYNVSRSTTEDFPLRLLSAAPSQTSVYFCASSYSVDSPLHFGNGTRLSVL
For the molecule B7, the binding result in the assay with NR0B1 peptide on HLA [2] is “recognises”.

B8: TCR of SEQ ID NOs 453 and 454 (TCR, V domains shown)
Valpha: B7 Valpha
Vbeta: B2 Vbeta with R94S, L95F, G96S, Q97P, F98N, G99T, Q100E
B8: in the assay with NR0B1 peptide on HLA [2], the binding result is “recognises”.

B9: TCR of SEQ ID NOs 463 and 464 (TCR, V domains shown)
Valpha: KQEVTQIPAALSVPEGENLVLNCSFTDSAIYNLQWFRQDPGKGLTSLLLIQSSQREQTSGRLNASLDKSSGRSTLYIAASQPGDSATYLCAVQGGSEKLVFGKGTKLTVNP
Vbeta: NAGVTQTPKFQVLKTGQSMTLQCAQDMNHNSMYWYRQDPGMGLRLIYYSASEGTTDKGEVPNGYNVSRLNKREFSLRLESAAPSQTSVYFCASSEEWSYGYTFGSGTRLTVV
For B9, in the assay with PAEP peptide on HLA, the binding result was “recognises”.
